The values below come from patent US20100136061A1 (LA JOLLA INSTITUTE FOR ALLERGY AND IMMUNOLOGY, published 2010).

To fix the notation:
B1: DcR3-Fc (human Decoy Receptor 3 Fc fusion) (Fc fusion, UniProt O95407 30-300, looked up)
chain: VAETPTYPWRDAETGERLVCAQCPPGTFVQRPCRRDSPTTCGPCPPRHYTQFWNYLERCRYCNVLCGEREEEARACHATHNRACRCRTGFFAHAGFCLEHASCPPGAGVIAPGTPSQNTQCQPCPPGTFSASSSSSEQCQPHRNCTALGLALNVPGSSSHDTLCTSCTGFPLSTRVPGAEECERAVIDFVAFQDISIKRLQRLLQALEAPEGWGPTPRAGRAALQLKLRRRLTELLGAQDGALLVRLLQALRVARMPGLERSVRERFLPVH
notes: also called human DcR3; not shown: Fc part

Assay [1] deals with T1, Heterotrimeric human LIGHT 32L-214E/32S-214K (combination of LIGHT-S32L and LIGHT-E214K subunits) expressed … (human, UniProt O43557 1-240; O43557 1-240).
T1 construct: Both polymorphic forms co-expressed in EL4 cells; also called combination of LIGHT-E214K and LIGHT-S32L
T1 chain 1: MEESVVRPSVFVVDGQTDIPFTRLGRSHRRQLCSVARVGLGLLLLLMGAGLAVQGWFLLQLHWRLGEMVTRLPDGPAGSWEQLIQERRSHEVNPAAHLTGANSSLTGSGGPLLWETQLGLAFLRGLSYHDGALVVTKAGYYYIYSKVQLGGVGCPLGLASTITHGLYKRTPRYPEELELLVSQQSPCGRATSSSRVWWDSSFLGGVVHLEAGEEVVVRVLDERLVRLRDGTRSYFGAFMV
T1 chain 2: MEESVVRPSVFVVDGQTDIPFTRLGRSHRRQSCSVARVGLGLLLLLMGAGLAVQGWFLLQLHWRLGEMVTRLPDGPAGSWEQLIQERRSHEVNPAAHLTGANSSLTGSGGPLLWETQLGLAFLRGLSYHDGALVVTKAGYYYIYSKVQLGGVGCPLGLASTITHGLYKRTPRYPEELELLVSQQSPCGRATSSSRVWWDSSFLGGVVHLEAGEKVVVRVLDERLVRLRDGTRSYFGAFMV
The assay can be described thus: competition flow cytometry, graded DcR3-Fc against constant LTβR-Fc on LIGHT expressing EL4 cells. How it is done:
(§1) FIGS. 11A-11B. Competition binding assay for LTβR-Fc to LIGHT expressing EL4 cells in the presence of DcR3. […] Specific LTβR-Fc binding to the LIGHT expressing EL4 cells was detected with an anti-LTβR monoclonal antibody (BD-A8). (B) IC50 values were calculated by nonlinear regression analysis using Prism GraphPad (v4; San Diego, USA).
(Flow cytometry measures light scatter and fluorescence of single cells or particles in a stream.)

The target in assay [2] is B1. Described as above. How it is done:
as §1

Turning to B1, the “IC50 ratio against the predominant form of LIGHT (SEQ ID NO:1)” value in assay [1] is about 2.5 times.

B2: Full Length Human LIGHT, predominant form (32S-214E), expressed on EL4 cells (ligand)
chain: MEESVVRPSVFVVDGQTDIPFTRLGRSHRRQSCSVARVGLGLLLLLMGAGLAVQGWFLLQLHWRLGEMVTRLPDGPAGSWEQLIQERRSHEVNPAAHLTGANSSLTGSGGPLLWETQLGLAFLRGLSYHDGALVVTKAGYYYIYSKVQLGGVGCPLGLASTITHGLYKRTPRYPEELELLVSQQSPCGRATSSSRVWWDSSFLGGVVHLEAGEEVVVRVLDERLVRLRDGTRSYFGAFMV
notes: Stably expressed on mouse EL4 thymoma cells by retroviral transduction; also called p30 polypeptide; TNFSF-14
In the case of B2, in assay [2], the binding result was “binds”.
